Data taken from PMC3060506 (The Journal of Biological Chemistry, 2010).
Ends that are not written are not given here.

Target: T1, RNASEH2BC heterodimer, purified (human, UniProt Q5TBB1 1-312; Q8TDP1 1-164)
T1 sequence (looked up) 1: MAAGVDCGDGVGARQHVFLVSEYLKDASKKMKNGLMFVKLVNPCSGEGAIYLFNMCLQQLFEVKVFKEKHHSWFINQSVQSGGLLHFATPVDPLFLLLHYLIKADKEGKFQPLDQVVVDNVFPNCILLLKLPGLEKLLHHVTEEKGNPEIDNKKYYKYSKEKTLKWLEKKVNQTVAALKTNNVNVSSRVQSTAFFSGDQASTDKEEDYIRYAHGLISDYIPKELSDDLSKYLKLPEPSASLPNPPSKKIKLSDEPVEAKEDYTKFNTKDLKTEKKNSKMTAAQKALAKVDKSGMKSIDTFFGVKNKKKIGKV
T1 sequence (looked up) 2: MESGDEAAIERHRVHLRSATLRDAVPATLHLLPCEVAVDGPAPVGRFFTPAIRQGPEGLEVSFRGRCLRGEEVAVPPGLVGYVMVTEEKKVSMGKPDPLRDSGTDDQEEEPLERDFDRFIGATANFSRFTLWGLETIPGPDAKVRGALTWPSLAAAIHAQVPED
Assay: fluorescence polarisation

fluorescein-GSSHRYFLERGLESATSL [fluorescein-labeled peptide RNASEH2A:283–299]
Kd: 123 ± 10 nM
